This assay has as its target Deinococcus radiodurans RNase J, wild type, full-length (residues 1-559) (Deinococcus radiodurans). The assay can be described thus: SEC.

Drawing on publication PMC4477667, this text covers stoichiometry N for one substance.

As a reminder, the stoichiometry N is the number of molecules, sites or subunits per partner or assembly. In turn, “Deinococcus radiodurans RNase J, wild type, full-length (residues 1-559) (enzyme)” displayed a stoichiometry N of 2.
